Data taken from the DeepSol protein solubility set.

Assay: soluble on expression in E. coli; label from the status in PepcDB or PDB records

MNKKSSSMVNMPAPREPINQKIDTNNALVLNHNAIYEQRLAEITQSNTCDKAIVTVNPYGTAPLSLYLGVWMDEAAALEINVVDSEATTEEVRYQYDVHPGANLIPVCGMVSAVNNQITLRLASQIVGQYTVMTDALPPTDSANVSLGFPIISVSCPAQQASLMEEGLYFSTYFDRYNLAFDHNGIVRWYVSQEIPSYNFVRMDNGHFLATSQGINHCLNMYEFDIMGRVYTVYLLDNEFHHSILPIENNLAIAPSEYSNGRPDGYSTGKDGVSIINLSTGLEVAYYDMLYVMDYSRSPRPSGSAPGQDVSMDDWLHINQSYINEPNNLLICSGRHQSAIFGVNVDSGELRFIMANHEDWSDEFKQYLLTPVDDDGVPLYDLTSPGGIDAADKNFWTWGQHNIVEIPNDEPGILEFMVFDNGNYRSREDAKSLLPLDNFSRVVQFKINLNTMTVTRPYEYGKTEVGNRGYSSFVSAKHLLTNGHLVIHFGATTVDEFEHTITAQPGSSDLVDPDEGQQALGRLVLQEINKETKEVLFEAMVTSGYFKNEETNGTNYRYDISAFRVYKMPLFA
soluble on expression in E. coli: not soluble

MSNDGDLNIDNLITRLLEVRGCRPGKPVTMSEAEIRALCHKSREIFLSQPILLELEAPLKICGDIHGQYNDLLRLFEYGGFPPEANYLFLGDYVDRGKQSLETICLLLAYKVKYPENFFLLRGNHECASINRIYGFYDECKRRFSIKLWKTFTDCFNCLPIAALIDEKIFCCHGGLSPDLQNMEQIRRVMRPTDVPDTGLLCDLLWSDPDKDVTGWGENDRGVSFTFGPDVVAKFLNRHDLDLICRAHQVVEDGYEFFAKRQLVTLFSAPNYCGEFDNAGGMMSVDETLMCSFQILKPSEKKAKYQYQGMNSGRPAVGGGRPGTTAGKK
soluble on expression in E. coli: not soluble

SKQNPLKRKRNDEITEEKVVLLMAMHKEDDEHQHTKPSPPSWEILCLVGPYMDPESLAVASCVSTTWSKCFSSEDLWKSLPATRHSIFAKAITKEGAKPAWLSYKRLISEAESAAKRRRNNQPAEPKISLSDLVFIVHVSAGSKEAVVVKQGKDLVFGSNERFQIEADVRDSGFTADMKDVSMSWNVVLRNYERMFLMSETVIKSLDSMIGWFTDELPGTKNRYCDGSNLVGEVKPSFNEDVLDKVVFAIADSRNWKSLFVDDVLRYLQCFLVD
soluble on expression in E. coli: soluble

MSLVKDIYSESIQIQIAASSMLSENITNATQMVMQCLLGGNKVIACGVSRSYANAQFLVSNLLNRYDLVRPSFPSVLLSLESAVGSSLVFEQPPEELYCHQFNASAKSGDLLIAFAPLGTEKIVLNIISHAVSKEVNVIVLTGSNNDAIQGILADKDLEISIPATKESRILENHLFVINALCELVDQTLFPSAEGGSHHHHHH
soluble on expression in E. coli: soluble

MSLDLRLEELAILGVKLPHDFSPEVQGPLFSSQGLNNISDIAHLSNNENLSYLMTATIENNKVKLDHFVQFLPMIMKFGNSEQRFQLQPKKDTNAPKPTTNKSRGYAKPKRGFGFVDLDDAPSSQPEPSDAEITRNNFDLEQTYWSKNFVNITRVGSRTILEPAIGASLTTYNSGQCYILRLPRKLLISTNTEWPDFISRKIELDGKPLPIPSDNLTEISSREDIISCSYVNDKIDSNWGAVVSLSKSSSENLKVVGIEKQSMVLRESTPMNEGHHHHHH
soluble on expression in E. coli: soluble

MRVELIYDKRNVGSLANATEIIRAELTKRVHRVFPDAEVNVKAMHANGINTNASKQEKSVLNRLVEEMFDEADEWLNNEF
soluble on expression in E. coli: not soluble

SKKEHVLHCQFSAWYPFFRGVTIKSVILPLPQNVKDYLLDDGTLVVSGRDDPPTHSQPDSDDEAEEIQWSDDENTATLTAPEFPEFATKVQEAINSLGGSVFPKLNWSAPRDAYWIAMNSSLKCKTLSDIFLLFKSSDFITRDFTQPFIHCTDDSPDPCIEYELVLRKWCELIPGAEFRCFVKENKLIGISQRDYTQYYDHISKQKEEIRRCIQDFFKKHIQYKFLDEDFVFDIYRDSRGKVWLIDFNPFGEVTDSLLFTWEELISENNLNGDFSEVDAQEQDSPAFRCTNSEVTVQPSPYLSYRLPKDFVDLSTGEDAHKLIDFLKLKRNQQEDD
soluble on expression in E. coli: soluble

MNFNGSLFERLADKTQKKTDLNEEERITASIATHLAKLLGTRAGSVNTLPDYGLPELNNASLSAHDTVRQSRLAIEKAIRDYEPRLSEVHVMSDESSWCVLKRTFSIDASLDMNGVKKTVVFSIAVAGDGHVILN
soluble on expression in E. coli: not soluble

MSLLTEQQRRELDWEKTDGLMPVIVQHAVSGEVLMLGYMNPEALDKTLESGKVTFFSRTKQRLWTKGETPGNFLNVVSIAPDCDNDTLLVLANPIGPTCHKGTSSCFGDTAHQWLFLYQLEQLLAERKSADPETSYTAKLYASGTKRIAQKVGEEGVETALAATVHDRFELTNEASDLMYHLLVLLQDQGLDLTPVIENLRKRHQEGHHHHHH
soluble on expression in E. coli: soluble

SKKQLDMSQKKTLTIDSELRFDELSLDTVRDFEKLAPFGMDNKKPVFLLKDFKVSQARVMGQNGAHLKLKLEQDGQALDLVAFNMGSQLQEFQQAQHLELAVTLSVNQWNGATTLQ
soluble on expression in E. coli: not soluble

MFVVKDCCQMIEVLFFIFKTNFKNCFPKMRKSKMYKSEPYSKKTIKIKKATDCGVITNIFSHFNEYVKQTIR
soluble on expression in E. coli: soluble

MTDCCPGFGSVAKYIAVSVREASFDVRSMAATSTCIFVLEVMGRHAGWIAAAGGLASDERHELALVILFPEQVFDPERFLRAVDEKVRSHGYCSVVVSEGIRGADGRFVAESGSRDVFGHARLGGVAPVIADLIKERLGYKYHWAVADYLQRAARHIALEHHHHHH
soluble on expression in E. coli: not soluble

MGSDKIHHHHHHMSESDGQSTPQDTREVIMEATFRALSKHGYKDLRVRDIGEEMEMSRQVIHYHFDGKYDLISSFLEYIIDQYEGSVEVDDETDPRTELDVRIDRCLFGPEFDDFSHWDRMKVYHELYAYAQNDDEHRALFNEHYDRLRKSISTVIEDGVEQGTFLDVDAELMGQLITDVIHAARGRRIALGHEDAPDEAKRAVNDFILDSLYPPQ
soluble on expression in E. coli: not soluble

MEQPTRPGFATRRRTQLFDALVDLILVEGFAHLTLDEIANRLRCSKSTLYTLAGSKEQLVRAATVHFFRRATDDVESHIEPIAGARERITAYLSAVGTALSAASDQFMADLDAFPPAREVYERNTQFAAGRVQELITEGVAGGDFRDVHAAFAADLAATMMVRIQQRGVRDSTGLDDAHAYAELAAILTGGISA
soluble on expression in E. coli: not soluble

SRENLGRIQFSVGYNFQESTLTVKIMKAQELPAKDFSGTSDPFVKIYLLPDKKHKLETKVKRKNLNPHWNETFLFEGFPYEKVVQRILYLQVLDYDRFSRNDPIGEVSIPLNKVDLTQMQTFWKDLKP
soluble on expression in E. coli: soluble

MGSDKIHHHHHHMTAPMNVIDDYYVSLGKIGILNYRTMDESGENAFLRKYLPSLSSPTILDVGANIGGYSKAILRESPSARVYAFEPHPITFGNLTKDTAEDRFHALNIGIGAKEETLDFYDYRDEDGSSHASLYKEVIEDIHHRPSTSHRVSIRRLDDVCAELGLPHIALLKIDTEGHELAALQGAERLIRSGAIDVIQFEFNEMNVISRCFFKDFWDFLPDYRFFRLLPHGSIEIKTYIPSFCEIFAFQNIVCVKKDLPEFF
soluble on expression in E. coli: not soluble

MTQNHSASLLVELLTEELPPKALARLSDAFAEGIAQRLAARDLIEGELAFERYATPRRLAVVVQNVRAVAPERQVREKVLPVSVALDAQGKPTAPLAKKLAALGHPNLSIADLERAHDGKAEAFFVNYASPGATLAEGLQAALDETLAKLPIPKVMTYQRPDGTDVQFVRPVHRLSALHDDRIVPVCAFGIDAGDTTLGHRFLSDGLVAIQHANAYADTLRDKGRVLAHFAGRKEAIRAQLEANAGGDQVVMPEALLDEVTSLVEWPVVYPCRFEDEFLQVPQECLILTMQTNQKYFALTDAAGKLRSRFLIVSNIETKTPDEIVEGNERVVRPRLADAKFFFEQDKKKPLADRVPLLANVVYHNKLGSQLARIERLETLAGEIAPAIGADATVAIRAARLAKADLLTDMVGEFPELQGTMGTYYARHDGEAEDVAIACSEHYQPRFSGDALPTTPVSTAVALADKLETIVGIWGIGLAPTGEKDPFALRRHALGVLRLLLEKQLPLDLVWLLRTTYERFAAVPDVAESTDAIHAFFVERLRGLLRERGYTAGEVDAVLSLNPTR
soluble on expression in E. coli: not soluble

MADDDDRVDISNETLASLVGRPMSSSGNRIRATPSRRRLVSAPTNPRWSPSADDRRLFSYVSSMRSDSNSSSKSPSPPSAKMSKRPNGPYSVRKYQPRGSPPSDGSDKIHRFGESPTPGGVGGVFGTELDDLIIDELMGMEDDQRMRPGATRPMTIGGEKTMSMARPIPGASSRAGSGHSGSPITIPNAMSNNFRQVVSSSAPTSSIDIEKMIGAVSNGGGNSGGDNDPEDYYRDRRKKDIHNMIERRRRYNINDRIKELGQMLPKNTSEDMKLNKGTILKASCDYIRVLQKDREQAMKTQQQQKSLESTAHKYADRVKELEEMLARQGVQVPPSHLPPIPKVIERPIKQEIDESPPNHTPTGSFVSSSGFLSEVTNNTAAMQITSPNDSRPNNFMNNSAPSDSFFSVGSASPPDYRTSSGTASWKLPGSNAFSDLMMDDLNPMMNGDPLISSAGAHPSPHFHSSQMSPDIHWDASGFSPDPINTQQSNSGHYHMDFS
soluble on expression in E. coli: not soluble

MSLTLTIEEIAKTKKLLVVSDFDGTIAGFSKDAYNVPINQKSLKAVKDLSQQADTDVVILSGRHLEGLKTVLDLGQYDITMVGSHGSEDSSRPRTLTPEEVARLAKIEADLEKIVDGIEGAFVEIKPFHRVLHFIRVSDKDKVQGILAQAAHVDSSGLKVTNGKSIIEYSISSTTKGTWLKEYVDRTEPTGVIFLGDDTTDEHGFKALENDDRALTVKVGEGDTAAKTRVDDVDNVGIFLEKLAYHRMQYAESVRLGEGHHHHHH
soluble on expression in E. coli: soluble

GPGSMEVKIGKDVALLTAHKTYRDDGEDMVKAVATYVPFMNYVAACESSGLVPSAFLVRNVRHIARRVVGVIMDVECNTPTGKIVQPVEMSDFSPAILLPVVIVETVRYALLLQRRCVAVGCGLTTEAFCGAKDSGDNITWQNHELLTSAGFDLRDVRKLGFGEYSVGNEGLPPYTLHTIKKGMSSEEFEQLQKISAGTADASLFAVRLEDVMSSVNDAKAGLAASVLLLES
soluble on expression in E. coli: soluble

EGLLNNHLDIPTATTQALTIQPSASYRINDHWSVGAALGIQYGMYEVETKGALNFNDEDQDTQLNGRVGVLYEATPGTRLGLSYSSETEFEFDNSNSIAPQQLIFSAYHEVNDDLAVMWNVNWQDWSEYTTTLKAADLVDVETQDTYQIALGTQYKLNEKMMWNAGFAFDTSMYESQSNGDITVPTGKAYRIGTGIDYKLDSENSIGFAFEAVLMESSETPRLQAGFDEPALYFMSMSYNWKN
soluble on expression in E. coli: not soluble

MQIAREETRKSGANILYVINHQRPSIFGSSMHQIGGLMLLSDSVVRNEGEGYPDSLLYDSGQRGKIGSRIKAPVHDLSFHFGPSTITNRTKGLSYSEQQLEKKLSNGLSFVLQYKCHPKGNLYGFGLIASRYEADITKKIEYQGIGFANRLDYIAPLFSMSTALSERWFLGMSFGKDGSQSVRLHYRFARLPVDRDLSAVGCVRKKSPHTDDCRLTVSPLYRPS
soluble on expression in E. coli: not soluble

MQGMREIKRRIRSVKNTRQITKAMKMVAAAKLRRAQETAENARPYADKIKEVISSIAAGTKDFSHPMLEARPVKKTGYMVITSDRGLAGPYNANILRLVSKTIEERHQSKDEYVIFAVGRKGRDFFKKRGYPVVEEVTGISDTPSLTEIQDIAQSAIGMFADETFDKLTIFYNEFVSPIVQRPVEKQLLPLTSEEVLDGPVSAYEYEPDSESVLEVLLPKYAETLIYSALLDAKASEFGARMTAMGNATDNATEMLETLTLQFNRARQAAITQEIAEIVAGANALR
soluble on expression in E. coli: soluble
